Paper PMC8298264, “Function of cofactor Akirin2 in the regulation of gene expression in model human neutrophil-like HL60 cells” (Bioscience Reports, 2021)

What follows are molecules tested on human HL60 cells (assay: SWATH-MS proteomics, differential protein representation, akirin2 KO vs WT HL60 cells). Conditions: SWATH-MS, akirin2 KO vs WT HL60 cells; over-represented in KO.
Format: cell-based
In short: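 Read-out is label-free SWATH-MS protein area, globally normalized to total detected-protein area, with identifications held at 1% FDR against a library from information-dependent acquisition.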

Row | Molecule | Fold Change | Log (Fold Change)
1 | Peroxiredoxin-2 (protein, UniProt P32119 2-198, looked up) Peroxiredoxin-2: ASGNARIGKPAPDFKATAVVDGAFKEVKLSDYKGKYVVLFFYPLDFTFVCPTEIIAFSNRAEDFRKLGCEVLGVSVDSQFTHLAWINTPRKEGGLGPLNIPLLADVTRRLSEDYGVLKTDEGIAYRGLFIIDGKGVLRQITVNDLPVGRSVDEALRLVQAFQYTDEHGEVCPAGWKPGSDTIKPNVDDSKEYFSKHN | 2.923 | 0.4659

Same assay, conditions: akirin2 KO vs WT HL60 cells; sheet "Over-represented in KO"

Row | Molecule | Fold Change | Log (Fold Change)
2 | sp¦Q15424¦SAFB1_HUMAN (protein, UniProt Q15424 2-915, looked up) Scaffold attachment factor B1: AETLSGLGDSGAAGAAALSSASSETGTRRLSDLRVIDLRAELRKRNVDSSGNKSVLMERLKKAIEDEGGNPDEIEITSEGNKKTSKRSSKGRKPEEEGVEDNGLEENSGDGQEDVETSLENLQDIDIMDISVLDEAEIDNGSVADCVEDDDADNLQESLSDSRELVEGEMKELPEQLQEHAIEDKETINNLDTSSSDFTILQEIEEPSLEPENEKILDILGETCKSEPVKEESSELEQPFAQDTSSVGPDRKLAEEEDLFDSAHPEEGDLDLASESTAHAQSSKADSLLAVVKREPAEQPGDGERTDCEPVGLEPAVEQSSAASELAEASSEELAEAPTEAPSPEARDSKEDGRKFDFDACNEVPPAPKESSTSEGADQKMSSPEDDSDTKRLSKEEKGRSSCGRNFWVSGLSSTTRATDLKNLFSKYGKVVGAKVVTNARSPGARCYGFVTMSTAEEATKCINHLHKTELHGKMISVEKAKNEPVGKKTSDKRDSDGKKEKSSNSDRSTNLKRDDKCDRKDDAKKGDDGSGEKSKDQDDQKPGPSERSRATKSGSRGTERTVVMDKSKGVPVISVKTSGSKERASKSQDRKSASREKRSVVSFDKVKEPRKSRDSESHSRVRERSEREQRMQAQWEREERERLEIARERLAFQRQRLERERMERERLERERMHVEHERRREQERIHREREELRRQQELRYEQERRPAVRRPYDLDRRDDAYWPEAKRAALDERYHSDFNRQDRFHDFDHRDRGRYPDHSVDRREGSRSMMGEREGQHYPERHGGPERHGRDSRDGWGGYGSDKRMSEGRGLPPPPRRDWGDHGRREDDRSWQGTADGGMMDRDHKRWQGGERSMSGHSGPGHMMNRGGMSGRGSFAPGGASRGHPIPHGGMQGGFGGQSRGSRPSDARFTRRY | 1.249 | 0.09669
3 | sp¦P20618¦PSB1_HUMAN (protein, UniProt P20618 29-241, looked up) Proteasome subunit beta type-1: RFSPYVFNGGTILAIAGEDFAIVASDTRLSEGFSIHTRDSPKCYKLTDKTVIGCSGFHGDCLTLTKIIEARLKMYKHSNNKAMTTGAIAAMLSTILYSRRFFPYYVYNIIGGLDEEGKGAVYSFDPVGSYQRDSFKAGGSASAMLQPLLDNQVGFKNMQNVEHVPLSLDRAMRLVKDVFISAAERDVYTGDALRICIVTKEGIREETVSLRKD | 1.163 | 0.06574
4 | sp¦P55145¦MANF_HUMAN (protein, UniProt P55145 25-182, looked up) Mesencephalic …: LRPGDCEVCISYLGRFYQDLKDRDVTFSPATIENELIKFCREARGKENRLCYYIGATDDAATKIINEVSKPLAHHIPVEKICEKLKKKDSQICELKYDKQIDLSTVDLKKLRVKELKKILDDWGETCKGCAEKSDYIRKINELMPKYAPKAASARTDL | 1.173 | 0.06948
5 | sp¦P10620¦MGST1_HUMAN (protein, UniProt P10620 1-155, looked up) Microsomal glutathione …: MVDLTQVMDDEVFMAFASYATIILSKMMLMSTATAFYRLTRKVFANPEDCVAFGKGENAKKYLRTDDRVERVRRAHLNDLENIIPFLGIGLLYSLSGPDPSTAILHFRLFVGARIYHTIAYLTPLPQPNRALSFFVGYGVTLSMAYRLLKSKLYL | 1.217 | 0.08527
6 | sp¦O75083¦WDR1_HUMAN (protein, UniProt O75083 1-606, looked up) WD repeat-containing protein 1: MPYEIKKVFASLPQVERGVSKIIGGDPKGNNFLYTNGKCVILRNIDNPALADIYTEHAHQVVVAKYAPSGFYIASGDVSGKLRIWDTTQKEHLLKYEYQPFAGKIKDIAWTEDSKRIAVVGEGREKFGAVFLWDSGSSVGEITGHNKVINSVDIKQSRPYRLATGSDDNCAAFFEGPPFKFKFTIGDHSRFVNCVRFSPDGNRFATASADGQIYIYDGKTGEKVCALGGSKAHDGGIYAISWSPDSTHLLSASGDKTSKIWDVSVNSVVSTFPMGSTVLDQQLGCLWQKDHLLSVSLSGYINYLDRNNPSKPLHVIKGHSKSIQCLTVHKNGGKSYIYSGSHDGHINYWDSETGENDSFAGKGHTNQVSRMTVDESGQLISCSMDDTVRYTSLMLRDYSGQGVVKLDVQPKCVAVGPGGYAVVVCIGQIVLLKDQRKCFSIDNPGYEPEVVAVHPGGDTVAIGGVDGNVRLYSILGTTLKDEGKLLEAKGPVTDVAYSHDGAFLAVCDASKVVTVFSVADGYSENNVFYGHHAKIVCLAWSPDNEHFASGGMDMMVYVWTLSDPETRVKIQDAHRLHHVSSLAWLDEHTLVTTSHDASVKEWTITY | 1.216 | 0.0848
7 | sp¦P25788¦PSA3_HUMAN (protein, UniProt P25788 2-255, looked up) Proteasome subunit alpha …: SSIGTGYDLSASTFSPDGRVFQVEYAMKAVENSSTAIGIRCKDGVVFGVEKLVLSKLYEEGSNKRLFNVDRHVGMAVAGLLADARSLADIAREEASNFRSNFGYNIPLKHLADRVAMYVHAYTLYSAVRPFGCSFMLGSYSVNDGAQLYMIDPSGVSYGYWGCAIGKARQAAKTEIEKLQMKEMTCRDIVKEVAKIIYIVHDEVKDKAFELELSWVGELTNGRHEIVPKDIREEAEKYAKESLKEEDESDDDNM | 1.227 | 0.08878
8 | sp¦P28074¦PSB5_HUMAN (protein, UniProt P28074 60-263, looked up) Proteasome subunit beta type-5: TTTLAFKFRHGVIVAADSRATAGAYIASQTVKKVIEINPYLLGTMAGGAADCSFWERLLARQCRIYELRNKERISVAAASKLLANMVYQYKGMGLSMGTMICGWDKRGPGLYYVDSEGNRISGATFSVGSGSVYAYGVMDRGYSYDLEVEQAYDLARRAIYQATYRDAYSGGAVNLYHVREDGWIRVSSDNVADLHEKYSGSTP | 1.209 | 0.08243
9 | sp¦P46926¦GNPI1_HUMAN (protein, UniProt P46926 1-289, looked up) Glucosamine-6-phosphate …: MKLIILEHYSQASEWAAKYIRNRIIQFNPGPEKYFTLGLPTGSTPLGCYKKLIEYYKNGDLSFKYVKTFNMDEYVGLPRDHPESYHSFMWNNFFKHIDIHPENTHILDGNAVDLQAECDAFEEKIKAAGGIELFVGGIGPDGHIAFNEPGSSLVSRTRVKTLAMDTILANARFFDGELTKVPTMALTVGVGTVMDAREVMILITGAHKAFALYKAIEEGVNHMWTVSAFQQHPRTVFVCDEDATLELKVKTVKYFKGLMLVHNKLVDPLYSIKEKETEKSQSSKKPYSD | 1.154 | 0.06211
10 | sp¦Q9UKX7¦NUP50_HUMAN (protein, UniProt Q9UKX7 1-468, looked up) Nuclear pore complex protein …: MAKRNAEKELTDRNWDQEDEAEEVGTFSMASEEVLKNRAIKKAKRRNVGFESDTGGAFKGFKGLVVPSGGGRFSGFGSGAGGKPLEGLSNGNNITSAPPFASAKAAADPKVAFGSLAANGPTTLVDKVSNPKTNGDSQQPSSSGLASSKACVGNAYHKQLAALNCSVRDWIVKHVNTNPLCDLTPIFKDYEKYLANIEQQHGNSGRNSESESNKVAAETQSPSLFGSTKLQQESTFLFHGNKTEDTPDKKMEVASEKKTDPSSLGATSASFNFGKKVDSSVLGSLSSVPLTGFSFSPGNSSLFGKDTTQSKPVSSPFPTKPLEGQAEGDSGECKGGDEEENDEPPKVVVTEVKEEDAFYSKKCKLFYKKDNEFKEKGIGTLHLKPTANQKTQLLVRADTNLGNILLNVLIPPNMPCTRTGKNNVLIVCVPNPPIDEKNATMPVTMLIRVKTSEDADELHKILLEKKDA | 1.164 | 0.06601
11 | sp¦P82979¦SARNP_HUMAN (protein, UniProt P82979 2-210, looked up) SAP domain-containing …: ATETVELHKLKLAELKQECLARGLETKGIKQDLIHRLQAYLEEHAEEEANEEDVLGDETEEEETKPIELPVKEEEPPEKTVDVAAEKKVVKITSEIPQTERMQKRAERFNVPVSLESKKAARAARFGISSVPTKGLSSDNKPMVNLDKLKERAQRFGLNVSSISRKSEDDEKLKKRKERFGIVTSSAGTGTTEDTEAKKRKRAERFGIA | 1.173 | 0.06929
12 | sp¦O60925¦PFD1_HUMAN (protein, UniProt O60925 2-122, looked up) Prefoldin subunit 1: AAPVDLELKKAFTELQAKVIDTQQKVKLADIQIEQLNRTKKHAHLTDTEIMTLVDETNMYEGVGRMFILQSKEAIHSQLLEKQKIAEEKIKELEQKKSYLERSVKEAEDNIREMLMARRAQ | 1.213 | 0.08377
13 | sp¦Q8WU90¦ZC3HF_HUMAN (protein, UniProt Q8WU90 1-426, looked up) Zinc finger CCCH …: MPPKKQAQAGGSKKAEQKKKEKIIEDKTFGLKNKKGAKQQKFIKAVTHQVKFGQQNPRQVAQSEAEKKLKKDDKKKELQELNELFKPVVAAQKISKGADPKSVVCAFFKQGQCTKGDKCKFSHDLTLERKCEKRSVYIDARDEELEKDTMDNWDEKKLEEVVNKKHGEAEKKKPKTQIVCKHFLEAIENNKYGWFWVCPGGGDICMYRHALPPGFVLKKDKKKEEKEDEISLEDLIERERSALGPNVTKITLESFLAWKKRKRQEKIDKLEQDMERRKADFKAGKALVISGREVFEFRPELVNDDDEEADDTRYTQGTGGDEVDDSVSVNDIDLSLYIPRDVDETGITVASLERFSTYTSDKDENKLSEASGGRAENGERSDLEEDNEREGTENGAIDAVPVDENLFTGEDLDELEEELNTLDLEE | 1.158 | 0.06384
14 | sp¦P13667¦PDIA4_HUMAN (protein, UniProt P13667 21-645, looked up) Protein disulfide-isomerase A4: VAGAEGPDEDSSNRENAIEDEEEEEEEDDDEEEDDLEVKEENGVLVLNDANFDNFVADKDTVLLEFYAPWCGHCKQFAPEYEKIANILKDKDPPIPVAKIDATSASVLASRFDVSGYPTIKILKKGQAVDYEGSRTQEEIVAKVREVSQPDWTPPPEVTLVLTKENFDEVVNDADIILVEFYAPWCGHCKKLAPEYEKAAKELSKRSPPIPLAKVDATAETDLAKRFDVSGYPTLKIFRKGRPYDYNGPREKYGIVDYMIEQSGPPSKEILTLKQVQEFLKDGDDVIIIGVFKGESDPAYQQYQDAANNLREDYKFHHTFSTEIAKFLKVSQGQLVVMQPEKFQSKYEPRSHMMDVQGSTQDSAIKDFVLKYALPLVGHRKVSNDAKRYTRRPLVVVYYSVDFSFDYRAATQFWRSKVLEVAKDFPEYTFAIADEEDYAGEVKDLGLSESGEDVNAAILDESGKKFAMEPEEFDSDTLREFVTAFKKGKLKPVIKSQPVPKNNKGPVKVVVGKTFDSIVMDPKKDVLIEFYAPWCGHCKQLEPVYNSLAKKYKGQKGLVIAKMDATANDVPSDRYKVEGFPTIYFAPSGDKKNPVKFEGGDRDLEHLSKFIEEHATKLSRTKEEL | 1.162 | 0.06526
